Measured values: patent US20180030135A1, “HUMAN MONOCLONAL ANTIBODIES AGAINST OREXIN RECEPTOR TYPE 1” (INSERM (INSTITUT NATIONAL DE LA SANTÉ ET DE LA RECHERCHÉ …, priority 2015, published 2018)
Residue numbers refer to the chain shown, from its start.

Legend:
[1] = target: T1, orexin receptor type 1 (OX1R) (human, UniProt O43613 1-425); experiment: competitive inhibition of 125I-OxA binding to HEK-OX1R cells
T1 construct: whole, on cells; also called HCTR1; hypocretin receptor type 1
T1 sequence (looked up): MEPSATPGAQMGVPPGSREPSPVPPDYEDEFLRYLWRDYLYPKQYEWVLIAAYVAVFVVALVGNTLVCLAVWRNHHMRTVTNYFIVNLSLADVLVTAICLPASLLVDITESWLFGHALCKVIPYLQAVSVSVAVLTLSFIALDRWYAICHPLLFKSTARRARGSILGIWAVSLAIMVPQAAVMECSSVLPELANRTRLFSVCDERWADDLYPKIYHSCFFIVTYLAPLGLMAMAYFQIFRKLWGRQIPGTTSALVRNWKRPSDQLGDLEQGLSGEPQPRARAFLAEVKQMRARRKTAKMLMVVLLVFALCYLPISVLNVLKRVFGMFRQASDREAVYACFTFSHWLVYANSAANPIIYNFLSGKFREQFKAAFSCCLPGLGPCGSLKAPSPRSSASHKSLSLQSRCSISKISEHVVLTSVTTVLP

[2] = target: T2, rat OX1R (rat, UniProt P56718 1-416); experiment: told from effects on cells transfected with rat OX1R (FIG. 4)
T2 construct: whole, on cells; also called CHO-ratOX1R; OX1R of rat
T2 sequence (looked up): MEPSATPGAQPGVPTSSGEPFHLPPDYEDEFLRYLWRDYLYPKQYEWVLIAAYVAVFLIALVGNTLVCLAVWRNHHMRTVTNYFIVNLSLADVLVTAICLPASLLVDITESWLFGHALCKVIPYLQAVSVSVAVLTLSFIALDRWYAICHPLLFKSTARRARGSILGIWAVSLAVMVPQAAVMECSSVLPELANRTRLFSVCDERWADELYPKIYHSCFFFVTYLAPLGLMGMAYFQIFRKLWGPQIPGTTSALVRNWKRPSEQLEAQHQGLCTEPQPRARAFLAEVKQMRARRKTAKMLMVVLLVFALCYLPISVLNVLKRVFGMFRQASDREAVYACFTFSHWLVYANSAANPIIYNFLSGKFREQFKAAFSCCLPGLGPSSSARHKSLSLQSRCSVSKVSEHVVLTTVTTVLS

[3] = target: T3, mouse OX1R (mouse, UniProt P58307 1-416); experiment: told from effects on cells transfected with mouse OX1R (FIG. 4)
T3 construct: whole, on cells; Legend says HEK-mouseOX1R, the text says CHO cell lines transfected with OX1R of mouse or rat; also called HEK-mouseOX1R; OX1R of mouse
T3 sequence (looked up): T2 sequence (looked up) with H116Q, R205H, F221I, G232A, P245R, S383G

[4] = test system: HEK-OX1R cells expressing recombinant OX1R; experiment: Cell growth of HEK-OX1R cells (cell counting); type: cell-based, human; settings: 0.1 μM, 48 h
[5] = test system: HEK-mouseOX1R; experiment: Cell growth / apoptosis of cells transfected with mouse OX1R; type: cell-based; settings: 0.1 μM, 48 h, FIG. 4
Experimental: Cells were treated for 48 h with 0.1 μM of each compound and then cells were counted. Results were expressed as the percentage of untreated cell number (Control).
The development of antibodies directed against OX1R were produced by a phage display strategy and the antibody selection was performed by using HEK and HEK stably expressing OX1R (HEK-OX1R) cell lines. As a first step, a batch of 7 different antibodies named B4, B10, C1, C2, D4, E7 and H7 was tested for their ability to inhibit the cell growth of HEK-OX1R. […] In contrast, B4, B10, D4, E7 and. […] As previously described orexins (A & B) induced a mitochondrial apoptosis mediated by an entirely novel mechanism, not related to Gq-mediated phospholipase C activation. In fact, orexins induced the tyrosine phosphorylation of two immunoreceptor tyrosine-based inhibitory motifs (ITIMs) located in the OX1R sequence. The resulting phosphorylated receptor could then recruit and activate the phosphotyrosine phosphatase, SHP-2, which is responsible for mitochondrial apoptosis, involving cytochrome c release from mitochondria to cytosol and caspase-3 and caspase-7 activation. Here, we tested the effect of SHP inhibitor (NSC 87877) on the ability of anti-OX1R to inhibit the cellular growth of HEK-OX1R (FIG. 3).

[6] = test system: CHO-ratOX1R; experiment: Cell growth / apoptosis of cells transfected with rat OX1R; type: cell-based; settings: 0.1 μM, 48 h, FIG. 4
[7] = test system: SW48 cells; experiment: Cell growth of colon cancer cell line SW48; type: cell-based; settings: 0.1 μM, 48 h
Experimental: (§1) A. SW48 and AsPC-1 cells. B. LoVo and HCT-116 cells. Cells were treated for 48 h with 0.1 μM of each compound and then cells were counted. Results were expressed as the percentage of untreated cell number (Control).
(§2) We have tested the ability of antibodies to inhibit the cellular growth in cancer cell lines derived from colon cancer (SW48, LoVo and HCT-116 cells) and pancreas cancer (AsPC-1 cells). […] D4 and H7 have a weak effect. […] As previously described (see above) orexins are able to induce a mitochondrial apoptosis in cancer cell lines. We test the ability of antibodies to induce apoptosis in HEK-OX1R cells and colonic cancer cell line LoVo. […] This effect was dose-dependent. Indeed when HEK-OX1R cells were treated with 0.01μM of C2 antibody, cell apoptosis was only of 6±0.7% of total cells.

[8] = test system: LoVo cells; experiment: Cell growth of colon cancer cell line LoVo; type: cell-based; settings: 0.1 μM, 48 h
Experimental: as §1, §2

[9] = test system: AsPC-1 cells; experiment: Cell growth of pancreas cancer cell line AsPC-1; type: cell-based; settings: 0.1 μM, 48 h
Experimental: as §1, §2

[10] = test system: HEK-OX1R cells expressing recombinant OX1R; experiment: Apoptosis in HEK-OX1R cells (annexin V-PE binding, Guava nexin kit); type: cell-based, human; settings: 0.1 μM, 48 h

B1: C1 antibody (antibody, V domains shown)
VH: EVQLVESGGSLVKPGGSLRLSCAASGFTFSNYYMNWVRQAPGKGLEWISYISGSSRNIYYADFVKGRFTISRDNATNSLYLQMNSLRAEDTAVYYCVRSNYDGMDVWGRGTLVTVSS
VL: QSVLTQPASVSGSPGQSITISCAGTSSDVGGSNYVSWYQQHPGKAPKLMIYSDSYRPSGVSNRFSGSKSGNTASLTISGLQAEDEADYYCSSYTYYSTRVFGGGTKLAVLG
notes: Human anti-OX1R antibody from phage display
- IC50 [1]: ~5 µM
- binding result [2]: binds
- binding result [3]: binds

B2: C1: human monoclonal anti-OX1R antibody from phage display; VH SEQ ID NO:1, VL SEQ ID NO:2 (antibody, V domains shown)
VH: B1 VH
VL: B1 VL
modifications: Synthetic VH sequence of C1; Synthetic VL sequence of C1
- inhibition of HEK-OX1R cellular growth in the presence of SHP inhibitor NSC 87877 ([4]; 50 μM NSC 87877): totally reversed
- reduction of HEK-OX1R cell number (cellular growth inhibition) ([4]; cells counted, versus untreated cells): about 46%±3
- promotion of apoptosis of cells transfected with OX1R of mouse (cross reaction) [5]: able to promote apotosis
- promotion of apoptosis of cells transfected with OX1R of rat (cross reaction) [6]: able to promote apotosis
- cell growth inhibition in SW48 cells [7]: inhibit the cell growth in SW48 cells similarly to OxB
- cell growth inhibition in LoVo cells [8]: inhibit the cell growth in LoVo cells similarly to OxB
- cell growth inhibition in AsPC-1 cells [9]: cell growth inhibition similar to OxB effect
- apoptosis in HEK-OX1R cells, % of total cells [10]: 12±1%
